Reference: patent publication US20170066831A1 (Janssen / Centocor, published 2017)

T1: human ST2L extracellular domain with C-terminal His6 tag (human, UniProt Q01638 19-328)
T1 construct: also called huST2L-ECD; ST2L-ECD
T1 sequence: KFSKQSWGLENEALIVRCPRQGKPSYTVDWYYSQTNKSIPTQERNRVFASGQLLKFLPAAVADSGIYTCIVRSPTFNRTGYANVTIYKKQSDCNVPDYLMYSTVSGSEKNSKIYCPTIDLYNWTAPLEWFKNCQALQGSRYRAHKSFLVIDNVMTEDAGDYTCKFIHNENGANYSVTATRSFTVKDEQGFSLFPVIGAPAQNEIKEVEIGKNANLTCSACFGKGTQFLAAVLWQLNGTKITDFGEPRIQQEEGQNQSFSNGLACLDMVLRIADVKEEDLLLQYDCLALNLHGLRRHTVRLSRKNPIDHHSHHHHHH

T2: cynomolgus (Macaca fascicularis) ST2L extracellular domain with C-terminal His6 tag (Macaca fascicularis (cynomolgus), UniProt Q01638 19-321 (human entry))
T2 construct: also called cyno ST2L-ECD; cynoST2L-ECD
T2 chain: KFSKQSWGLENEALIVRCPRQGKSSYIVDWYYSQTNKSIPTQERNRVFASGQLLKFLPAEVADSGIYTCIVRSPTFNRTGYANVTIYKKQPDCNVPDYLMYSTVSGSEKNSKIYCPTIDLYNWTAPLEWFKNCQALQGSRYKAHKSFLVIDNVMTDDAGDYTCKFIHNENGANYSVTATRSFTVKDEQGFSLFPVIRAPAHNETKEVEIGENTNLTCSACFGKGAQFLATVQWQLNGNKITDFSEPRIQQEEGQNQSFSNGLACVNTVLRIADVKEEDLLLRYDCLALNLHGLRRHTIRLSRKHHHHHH

B1: STLM203 (antibody, V domains shown)
VH: EVQLVQSGAEVKKPGATVKISCKVSAFNIKDDYMHWVQQAPGKGLEWMGRIDPAIGNTEYAEKFQGRVTITADTSTDTAYMELSSLRSEDTAVYYCATGDFYAMDYWGQGTLVTVSS
VL: DIQMTQSPSSLSASVGDRVTITCITNTDIDDVIHWYQQKPGKAPKLLIYEGNTLRPGVPSRFSGSGSGTDFTLTISSLQPEDFATYYCLQSDNMLTFGQGTKLEIK
notes: C2494 HFA mAb: VH STLH194 + VL STLL274 (O12)
B2: STLM187 (antibody, V domains shown)
VH: QVQLVQSGAEVKKPGASVKVSCKVSAFNIKDDYMHWVRQAPGKGLEWMGRIDPAIGNTEYAPKFQDRVTMTEDTSTDTAYMELSSLRSEDTAVYYCATGDFYAMDYWGQGTLVTVSS
VL: DIQMTQSPSSLSASVGDRVTITCITNTDIDDVIHWYQQKPGKAPKLLIYEGNTLRPGVPSRFSGSGSGTDFTLTISSLQPEDFATYYCLQSDNLLTFGQGTKLEIK
notes: C2494 HFA mAb: VH STLH195 (IGHV1-24*01) + VL STLL280 (O12b)
B3: STLM190 (antibody, V domains shown)
VH: QVQLVQSGAEVKKPGASVKVSCKVSAFNIKDDYMHWVRQAPGKGLEWMGRIDPAIGNTEYAPKFQDRVTMTEDTSTDTAYMELSSLRSEDTAVYYCATGDFYAMDYWGQGTLVTVSS
VL: DIQLTQSPSFLSASVGDRVTITCITNTDIDDVIHWYQQKPGKAPKLLIYEGNTLRPGVPSRFSGSGSGTEFTLTISSLQPEDFATYYCLQSDNMLTFGQGTKLEIK
notes: C2494 HFA mAb: VH STLH195 + VL STLL277 (L8)
B4: STLM191 (antibody, V domains shown)
VH: QVQLVQSGAEVKKPGASVKVSCKVSAFNIKDDYMHWVRQAPGKGLEWMGRIDPAIGNTEYAPKFQDRVTMTEDTSTDTAYMELSSLRSEDTAVYYCATGDFYAMDYWGQGTLVTVSS
VL: DIQMTQSPSTLSASVGDRVTITCITNTDIDDVIHWYQQKPGKAPKLLIYEGNTLRPGVPSRFSGSGSGTEFTLTISSLQPDDFATYYCLQSDNMLTFGQGTKLEIK
notes: C2494 HFA mAb: VH STLH195 + VL STLL276 (L12)
B5: STLM192 (antibody, V domains shown)
VH: QVQLVQSGAEVKKPGASVKVSCKVSAFNIKDDYMHWVRQAPGKGLEWMGRIDPAIGNTEYAPKFQDRVTMTEDTSTDTAYMELSSLRSEDTAVYYCATGDFYAMDYWGQGTLVTVSS
VL: DIQMTQSPSSVSASVGDRVTITCITNTDIDDVIHWYQQKPGKAPKLLIYEGNTLRPGVPSRFSGSGSGTDFTLTISSLQPEDFATYYCLQSDNMLTFGQGTKLEIK
notes: C2494 HFA mAb: VH STLH195 + VL STLL275 (L5)
B6: STLM193 (antibody, V domains shown)
VH: QVQLVQSGAEVKKPGASVKVSCKVSAFNIKDDYMHWVRQAPGKGLEWMGRIDPAIGNTEYAPKFQDRVTMTEDTSTDTAYMELSSLRSEDTAVYYCATGDFYAMDYWGQGTLVTVSS
VL: DIQMTQSPSSLSASVGDRVTITCITNTDIDDVIHWYQQKPGKAPKLLIYEGNTLRPGVPSRFSGSGSGTDFTLTISSLQPEDFATYYCLQSDNMLTFGQGTKLEIK
notes: C2494 HFA mAb: VH STLH195 + VL STLL274 (O12)
B7: STLM194 (antibody, V domains shown)
VH: QVQLVQSGAEVKKPGASVKVSCKVSAFNIKDDYMHWVRQAPGKGLEWMGRIDPAIGNTEYAPKFQDRVTMTEDTSTDTAYMELSSLRSEDTAVYYCATGDFYAMDYWGQGTLVTVSS
VL: DIQMTQSPSSLSASVGDRVTITCITNTDIDDVIHWYQQKPGKVPKLLIYEGNTLRPGVPSRFSGSGSGTDFTLTISSLQPEDVATYYCLQSDNMLTFGQGTKLEIK
notes: C2494 HFA mAb: VH STLH195 + VL STLL273 (A20)
B8: STLM195 (antibody, V domains shown)
VH: QVQLVQSGAEVKKPGASVKVSCKVSAFNIKDDYMHWVRQAPGKGLEWMGRIDPAIGNTEYAPKFQDRVTMTEDTSTDTAYMELSSLRSEDTAVYYCATGDFYAMDYWGQGTLVTVSS
VL: DIQMTQSPSSLSASVGDRVTITCITNTDIDDVIHWYQQKPGKAPKLLIYEGNTLRPGVPSRFSGSGSGTDFTFTISSLQPEDIATYYCLQSDNMLTFGQGTKLEIK
notes: C2494 HFA mAb: VH STLH195 + VL STLL272 (O18)
B9: STLM197 (antibody, V domains shown)
VH: EVQLVQSGAEVKKPGATVKISCKVSAFNIKDDYMHWVQQAPGKGLEWMGRIDPAIGNTEYAEKFQGRVTITADTSTDTAYMELSSLRSEDTAVYYCATGDFYAMDYWGQGTLVTVSS
VL: DIQMTQSPSSLSASVGDRVTITCITNTDIDDVIHWYQQKPGKAPKLLIYEGNTLRPGVPSRFSGSGSGTDFTLTISSLQPEDFATYYCLQSDNLLTFGQGTKLEIK
notes: C2494 HFA mAb: VH STLH194 (IGHV1-f*01) + VL STLL280 (O12b)
B10: STLM200 (antibody, V domains shown)
VH: EVQLVQSGAEVKKPGATVKISCKVSAFNIKDDYMHWVQQAPGKGLEWMGRIDPAIGNTEYAEKFQGRVTITADTSTDTAYMELSSLRSEDTAVYYCATGDFYAMDYWGQGTLVTVSS
VL: DIQLTQSPSFLSASVGDRVTITCITNTDIDDVIHWYQQKPGKAPKLLIYEGNTLRPGVPSRFSGSGSGTEFTLTISSLQPEDFATYYCLQSDNMLTFGQGTKLEIK
notes: C2494 HFA mAb: VH STLH194 + VL STLL277 (L8)
B11: STLM201 (antibody, V domains shown)
VH: EVQLVQSGAEVKKPGATVKISCKVSAFNIKDDYMHWVQQAPGKGLEWMGRIDPAIGNTEYAEKFQGRVTITADTSTDTAYMELSSLRSEDTAVYYCATGDFYAMDYWGQGTLVTVSS
VL: DIQMTQSPSTLSASVGDRVTITCITNTDIDDVIHWYQQKPGKAPKLLIYEGNTLRPGVPSRFSGSGSGTEFTLTISSLQPDDFATYYCLQSDNMLTFGQGTKLEIK
notes: C2494 HFA mAb: VH STLH194 + VL STLL276 (L12)
B12: STLM202 (antibody, V domains shown)
VH: EVQLVQSGAEVKKPGATVKISCKVSAFNIKDDYMHWVQQAPGKGLEWMGRIDPAIGNTEYAEKFQGRVTITADTSTDTAYMELSSLRSEDTAVYYCATGDFYAMDYWGQGTLVTVSS
VL: DIQMTQSPSSVSASVGDRVTITCITNTDIDDVIHWYQQKPGKAPKLLIYEGNTLRPGVPSRFSGSGSGTDFTLTISSLQPEDFATYYCLQSDNMLTFGQGTKLEIK
notes: C2494 HFA mAb: VH STLH194 + VL STLL275 (L5)
B13: STLM204 (antibody, V domains shown)
VH: EVQLVQSGAEVKKPGATVKISCKVSAFNIKDDYMHWVQQAPGKGLEWMGRIDPAIGNTEYAEKFQGRVTITADTSTDTAYMELSSLRSEDTAVYYCATGDFYAMDYWGQGTLVTVSS
VL: DIQMTQSPSSLSASVGDRVTITCITNTDIDDVIHWYQQKPGKVPKLLIYEGNTLRPGVPSRFSGSGSGTDFTLTISSLQPEDVATYYCLQSDNMLTFGQGTKLEIK
notes: C2494 HFA mAb: VH STLH194 + VL STLL273 (A20)
B14: STLM205 (antibody, V domains shown)
VH: EVQLVQSGAEVKKPGATVKISCKVSAFNIKDDYMHWVQQAPGKGLEWMGRIDPAIGNTEYAEKFQGRVTITADTSTDTAYMELSSLRSEDTAVYYCATGDFYAMDYWGQGTLVTVSS
VL: DIQMTQSPSSLSASVGDRVTITCITNTDIDDVIHWYQQKPGKAPKLLIYEGNTLRPGVPSRFSGSGSGTDFTFTISSLQPEDIATYYCLQSDNMLTFGQGTKLEIK
notes: C2494 HFA mAb: VH STLH194 + VL STLL272 (O18)

Tests used:
[1] = biological target: T1, human ST2L extracellular domain with …; test: ProteOn SPR, mAb captured, ST2L-ECD in solution
Experimental: (§1) The affinities were analyzed by ProteOn. The experiments were performed at 25° C. using ProteOn's PBS-T-E buffer (PBS, 0.005% P20 and 3 mM EDTA) as running buffer. […] Mab capture was followed by injection of ST2L-ECD from 0.024-15 nM (5-fold dilutions) for 4 min (200 μL at 50 μL/min). The dissociation was monitored for 30 minutes for all reaction. Regeneration was performed using two 15 sec pulses of 10 mM glycine pH1.5. The data was fitted to a 1:1 with baseline drift model.
(§2) Association rates for the samples are fast, the langmuir with mass transfer model was used for curve fitting and estimation of Affinity. All of the samples had faster off rates than the parental clone and control Mab. The difference in off rate was the primary contributor to the lower affinity of the HFA variants when compared to the parent antibody.

[2] = biological target: T2, cynomolgus (Macaca fascicularis) ST2L …; test: ProteOn SPR, mAb captured, ST2L-ECD in solution
Experimental: as §1, §2

Binder | Kd [1] | koff [1] | kon [1] | Kd [2] | koff [2] | kon [2]
B1 | 0.0473 nM | 0.000967 s⁻¹ | 2.04e+07 M⁻¹ s⁻¹ | 0.111 nM | 0.00656 s⁻¹ | 5.88e+07 M⁻¹ s⁻¹
B2 | 0.473 nM | 0.0159 s⁻¹ | 3.37e+07 M⁻¹ s⁻¹ | 1.1 nM | 0.11 s⁻¹ | 1e+08 M⁻¹ s⁻¹
B3 | 0.534 nM | 0.0534 s⁻¹ | 1e+08 M⁻¹ s⁻¹ | 1.02 nM | 0.102 s⁻¹ | 1e+08 M⁻¹ s⁻¹
B4 | 0.292 nM | 0.0247 s⁻¹ | 8.46e+07 M⁻¹ s⁻¹ | 0.666 nM | 0.0666 s⁻¹ | 1e+08 M⁻¹ s⁻¹
B5 | 0.42 nM | 0.00885 s⁻¹ | 2.11e+07 M⁻¹ s⁻¹ | 0.999 nM | 0.0999 s⁻¹ | 1e+08 M⁻¹ s⁻¹
B6 | 0.267 nM | 0.0127 s⁻¹ | 4.77e+07 M⁻¹ s⁻¹ | 0.932 nM | 0.0932 s⁻¹ | 1e+08 M⁻¹ s⁻¹
B7 | 0.703 nM | 0.0703 s⁻¹ | 1e+08 M⁻¹ s⁻¹ | 1.9 nM | 0.19 s⁻¹ | 1e+08 M⁻¹ s⁻¹
B8 | 0.271 nM | 0.00673 s⁻¹ | 2.49e+07 M⁻¹ s⁻¹ | 0.719 nM | 0.0719 s⁻¹ | 1e+08 M⁻¹ s⁻¹
B9 | 0.0885 nM | 0.00162 s⁻¹ | 1.83e+07 M⁻¹ s⁻¹ | 0.232 nM | 0.00688 s⁻¹ | 2.97e+07 M⁻¹ s⁻¹
B10 | 0.0608 nM | 0.00143 s⁻¹ | 2.35e+07 M⁻¹ s⁻¹ | 0.134 nM | 0.011 s⁻¹ | 8.23e+07 M⁻¹ s⁻¹
B11 | 0.0484 nM | 0.000852 s⁻¹ | 1.76e+07 M⁻¹ s⁻¹ | 0.116 nM | 0.0041 s⁻¹ | 3.55e+07 M⁻¹ s⁻¹
B12 | 0.0529 nM | 0.00119 s⁻¹ | 2.24e+07 M⁻¹ s⁻¹ | 0.134 nM | 0.0104 s⁻¹ | 7.75e+07 M⁻¹ s⁻¹
B13 | 0.0813 nM | 0.00241 s⁻¹ | 2.97e+07 M⁻¹ s⁻¹ | 0.205 nM | 0.0205 s⁻¹ | 1e+08 M⁻¹ s⁻¹
B14 | 0.0401 nM | 0.000695 s⁻¹ | 1.73e+07 M⁻¹ s⁻¹ | 0.1 nM | 0.00404 s⁻¹ | 4.04e+07 M⁻¹ s⁻¹
